In US20240067944A1 (published 2024):
No end group written: not given here.

Columns and labels:
Test in all cases: ELISA, biotinylated 12-mer peptide on streptavidin, 2 ug/mL FLAG-tagged VHH, anti-FLAG-HRP
… (human) = target: T1, … (human)
T1 sequence (peptide, C-terminally conjugated to biotin): LLDFNQTQPERG

SVAQATSSSGEA = target: T2, SVAQATSSSGEA (human)
T2 peptide: SVAQATSSSGEA-biotin
Method: (§1) To determine whether the binding epitope of the anti-FX VHH polypeptide designated “cmpd #1” are located inside the activation peptide (AP) of human FX (SEQ ID NO:2), an ELISA assay was setup. 41 unique 12-mer peptide fragments spanning the 52 residues of the activation peptide with one amino acid spacing were immobilized in microtiter plate wells followed by incubation with the VHH polypeptide to be tested, and detection of bound ligand was performed by addition of a secondary HRP-labelled antibody.
(§2) The peptides were C-terminally conjugated to biotin and 50 μL of 1 μg/mL peptide solution was used for immobilization in discrete wells of the microtiter plate which was pre-coated with 1 μg/mL streptavidin. Each well was washed with washing buffer (10 mM Tris, 150 mM NaCl, 2.5 mM CaCl₂), 0.05% Tween 20, pH 8.60) followed by addition of 50 μL of 2 μg/mL FLAG-tagged anti-FX VHH polypeptide or IgG antibody to be tested. After 1 hour non-bound VHH polypeptide was washed off using washing buffer.
(§3) Bound anti-FX activation peptide ligand was detected by first binding a HRP-labelled secondary antibody (for FLAG-tagged VHH polypeptide: Anti-FLAG mAb M2-Peroxidase (HRP) (Sigma Aldrich, US) for 1 hour, and then adding 100 μL TMB-1 ELISA substrate (Kem-En-Tec Diagnostics, Denmark).

VAQATSSSGEAP = target: T3, VAQATSSSGEAP (human)
T3 peptide: VAQATSSSGEAP-biotin
Method: as §1, §2, §3

ATSSSGEAPDSI = target: T4, ATSSSGEAPDSI (human)
T4 peptide: ATSSSGEAPDSI-biotin
Method: as §1, §2, §3

TSSSGEAPDSIT = target: T5, TSSSGEAPDSIT (human)
T5 peptide: TSSSGEAPDSIT-biotin
Method: as §1, §2, §3

GEAPDSITWKPY = target: T6, GEAPDSITWKPY (human)
T6 peptide: GEAPDSITWKPY-biotin
Method: as §1, §2, §3

PDSITWKPYDAA = target: T7, PDSITWKPYDAA (human)
T7 peptide: PDSITWKPYDAA-biotin
Method: as §1, §2, §3

SITWKPYDAADL = target: T8, SITWKPYDAADL (human)
T8 peptide: SITWKPYDAADL-biotin
Method: as §1, §2, §3

ITWKPYDAADLD = target: T9, ITWKPYDAADLD (human)
T9 peptide: ITWKPYDAADLD-biotin
Method: as §1, §2, §3

TWKPYDAADLDP = target: T10, TWKPYDAADLDP (human)
T10 peptide: TWKPYDAADLDP-biotin
Method: as §1, §2, §3

WKPYDAADLDPT = target: T11, WKPYDAADLDPT (human)
T11 peptide: WKPYDAADLDPT-biotin
Method: as §1, §2, §3

KPYDAADLDPTE = target: T12, KPYDAADLDPTE (human)
T12 peptide: KPYDAADLDPTE-biotin
Method: as §1, §2, §3

PYDAADLDPTEN = target: T13, PYDAADLDPTEN (human)
T13 peptide: PYDAADLDPTEN-biotin
Method: as §1, §2, §3

DAADLDPTENPF = target: T14, DAADLDPTENPF (human)
T14 peptide: DAADLDPTENPF-biotin
Method: as §1, §2, §3

DLDPTENPFDLL = target: T15, DLDPTENPFDLL (human)
T15 peptide: DLDPTENPFDLL-biotin
Method: as §1, §2, §3

LDPTENPFDLLD = target: T16, LDPTENPFDLLD (human)
T16 peptide: LDPTENPFDLLD-biotin
Method: as §1, §2, §3

DPTENPFDLLDF = target: T17, DPTENPFDLLDF (human)
T17 peptide: DPTENPFDLLDF-biotin
Method: as §1, §2, §3

TENPFDLLDFNQ = target: T18, TENPFDLLDFNQ (human)
T18 peptide: TENPFDLLDFNQ-biotin
Method: as §1, §2, §3

NPFDLLDFNQTQ = target: T19, NPFDLLDFNQTQ (human)
T19 peptide: NPFDLLDFNQTQ-biotin
Method: as §1, §2, §3

DLLDFNQTQPER = target: T20, DLLDFNQTQPER (human)
T20 peptide: DLLDFNQTQPER-biotin
Method: as §1, §2, §3

LDFNQTQPERGD = target: T21, LDFNQTQPERGD (human)
T21 peptide: LDFNQTQPERGD-biotin
Method: as §1, §2, §3

FNQTQPERGDNN = target: T22, FNQTQPERGDNN (human)
T22 peptide: FNQTQPERGDNN-biotin
Method: as §1, §2, §3

TQPERGDNNLTR = target: T23, TQPERGDNNLTR (human)
T23 peptide: TQPERGDNNLTR-biotin
Method: as §1, §2, §3

B1: Cmpd #1 (monovalent anti-FX VHH polypeptide, VHH-1.1) (VHH)
VHH: EVQLVESGGGLVQPGGSLRLSCAASGSIGAFDAMGWYRQAPGKQRELVAGIMVSRGNTNYTDSVKGRFTISRDNAKNTVYLQMNSLKPEDTAVYYCKAVKRPGPGYLEVWGQGTLVTVSS
notes: No protractor
B1 was tested, and the ELISA signal normalized relative to the background signal (relative to background) (… (human)) was 1.88, the “ELISA signal normalized relative to the background signal” value (SVAQATSSSGEA) was 0.96 relative to background and the “ELISA signal normalized relative to the background signal” value (VAQATSSSGEAP) was 1.02 relative to background. For the same binder, the “ELISA signal normalized relative to the background signal” value (ATSSSGEAPDSI) was 0.98 relative to background, the “ELISA signal normalized relative to the background signal” value (TSSSGEAPDSIT) was 0.77 relative to background and the “ELISA signal normalized relative to the background signal” value (GEAPDSITWKPY) was 0.93 relative to background. For the same binder, the “ELISA signal normalized relative to the background signal” value (PDSITWKPYDAA) was 1.05 relative to background, the “ELISA signal normalized relative to the background signal” value (SITWKPYDAADL) was 1.08 relative to background and the “ELISA signal normalized relative to the background signal” value (ITWKPYDAADLD) was 1.1 relative to background. The “ELISA signal normalized relative to the background signal” value (TWKPYDAADLDP) was 1.13 relative to background, the “ELISA signal normalized relative to the background signal” value (WKPYDAADLDPT) was 0.89 relative to background and the “ELISA signal normalized relative to the background signal” value (KPYDAADLDPTE) was 0.8 relative to background. The “ELISA signal normalized relative to the background signal” value (PYDAADLDPTEN) was 0.83 relative to background, the “ELISA signal normalized relative to the background signal” value (DAADLDPTENPF) was 0.88 relative to background and the “ELISA signal normalized relative to the background signal” value (DLDPTENPFDLL) was 1 relative to background. The “ELISA signal normalized relative to the background signal” value (LDPTENPFDLLD) was 1.11 relative to background, the “ELISA signal normalized relative to the background signal” value (DPTENPFDLLDF) was 4.16 relative to background and the “ELISA signal normalized relative to the background signal” value (TENPFDLLDFNQ) was 4.84 relative to background. The “ELISA signal normalized relative to the background signal” value (NPFDLLDFNQTQ) was 3.13 relative to background, the “ELISA signal normalized relative to the background signal” value (DLLDFNQTQPER) was 3.08 relative to background and the “ELISA signal normalized relative to the background signal” value (LDFNQTQPERGD) was 0.97 relative to background. For the same binder, the “ELISA signal normalized relative to the background signal” value (FNQTQPERGDNN) was 1 relative to background and the “ELISA signal normalized relative to the background signal” value (TQPERGDNNLTR) was 1.05 relative to background.
